In publication PMC6733756:
Read-outs that look alike come from different tables or passages of the source.

B1: XCL1 CC3 (ligand)
chain: VGSEVSDKRTCVSLTTQRLPCSRIKTYTITEGSLRAVIFITKRGLKVCADPQATWVRDCVRSMDRKSNTRNNMIQTKPTGTQQSTNTAVTLTG
B2: XCL1 CC3 G2A (ligand)
chain: VASEVSDKRTCVSLTTQRLPCSRIKTYTITEGSLRAVIFITKRGLKVCADPQATWVRDCVRSMDRKSNTRNNMIQTKPTGTQQSTNTAVTLTG
B3: XCL1 CC3 R9A (ligand)
chain: VGSEVSDKATCVSLTTQRLPCSRIKTYTITEGSLRAVIFITKRGLKVCADPQATWVRDCVRSMDRKSNTRNNMIQTKPTGTQQSTNTAVTLTG
B4: XCL1 CC3 S6A (ligand)
chain: VGSEVADKRTCVSLTTQRLPCSRIKTYTITEGSLRAVIFITKRGLKVCADPQATWVRDCVRSMDRKSNTRNNMIQTKPTGTQQSTNTAVTLTG
B5: XCL1 CC3 V1A (ligand)
chain: AGSEVSDKRTCVSLTTQRLPCSRIKTYTITEGSLRAVIFITKRGLKVCADPQATWVRDCVRSMDRKSNTRNNMIQTKPTGTQQSTNTAVTLTG
B6: XCL1 CC3 E4A (ligand)
chain: VGSAVSDKRTCVSLTTQRLPCSRIKTYTITEGSLRAVIFITKRGLKVCADPQATWVRDCVRSMDRKSNTRNNMIQTKPTGTQQSTNTAVTLTG
B7: XCL1 WT (ligand)
chain: VGSEVSDKRTCVSLTTQRLPVSRIKTYTITEGSLRAVIFITKRGLKVCADPQATWVRDVVRSMDRKSNTRNNMIQTKPTGTQQSTNTAVTLTG
B8: XCL1 CC3 S3A (ligand)
chain: VGAEVSDKRTCVSLTTQRLPCSRIKTYTITEGSLRAVIFITKRGLKVCADPQATWVRDCVRSMDRKSNTRNNMIQTKPTGTQQSTNTAVTLTG
B9: XCL1 CC3 T10A (ligand)
chain: VGSEVSDKRACVSLTTQRLPCSRIKTYTITEGSLRAVIFITKRGLKVCADPQATWVRDCVRSMDRKSNTRNNMIQTKPTGTQQSTNTAVTLTG
B10: XCL1 CC3 K8A (ligand)
chain: VGSEVSDARTCVSLTTQRLPCSRIKTYTITEGSLRAVIFITKRGLKVCADPQATWVRDCVRSMDRKSNTRNNMIQTKPTGTQQSTNTAVTLTG
B11: XCL1 CC3 V5A (ligand)
chain: VGSEASDKRTCVSLTTQRLPCSRIKTYTITEGSLRAVIFITKRGLKVCADPQATWVRDCVRSMDRKSNTRNNMIQTKPTGTQQSTNTAVTLTG
B12: XCL1 CC3 D7A (ligand)
chain: VGSEVSAKRTCVSLTTQRLPCSRIKTYTITEGSLRAVIFITKRGLKVCADPQATWVRDCVRSMDRKSNTRNNMIQTKPTGTQQSTNTAVTLTG

Columns and labels:
human XCR1 (human) [1] = molecular target: human XCR1 (human) (UniProt P46094)
human XCR1 (human) [2] = molecular target: human XCR1 (human) (UniProt P46094); experiment: radioligand binding
human XCR1 (human) [3] = molecular target: human XCR1 (human) (UniProt P46094); remark: listed apart in the source
human XCR1 (human) [4] = molecular target: human XCR1 (human) (UniProt P46094); experiment: radioligand binding; remark: listed apart in the source

Molecule | calcium flux in XCR1-expressing HEK293 cells, EC50 (human XCR1 (human) [1]) [nM] | EC50 (human XCR1 (human) [2]) [nM] | further results
XCL1 +Gly^N-term (from UniProt P47992 22-114) (ligand) | > 268 | – | fold decrease in affinity against XCL1 CC3 (human XCR1 (human) [2]): > 100 fold
XCL1 ΔVal^1 (from UniProt P47992 22-114) (ligand) | – | – | fold decrease in affinity against XCL1 CC3 (human XCR1 (human) [2]): > 100 fold
B1 | – | 1 | ^3H-IP3 accumulation in COS-7 cells transfected with XCR1 and Gqi4myr, EC50 (human XCR1 (human) [3]): 14.1 nM
B2 | > 268 | – | fold decrease in affinity against XCL1 CC3 (human XCR1 (human) [2]): > 100 fold
B3 | – | < 1 | –
B4 | – | < 1 | –
B5 | > 268 | – | –
B6 | – | – | fold decrease in affinity against XCL1 CC3 (human XCR1 (human) [2]): > 100 fold
B7 | – | 7.7 | ^3H-IP3 accumulation in COS-7 cells transfected with XCR1 and Gqi4myr, EC50 (human XCR1 (human) [3]): 17.6 nM
B8 | > 268 | – | –
B9 | – | – | EC50 (human XCR1 (human) [4]): < 1 nM
B10 | > 268 | 5.2 | EC50 (human XCR1 (human) [4]): < 1 nM
B11 | – | 8 | –
B12 | > 268 | – | EC50 (human XCR1 (human) [4]): < 1 nM
